Consider 1 substance from patent US20250090676A1.

The assay has as its target human folate receptor alpha on cells (human) (UniProt P15328). Briefly: cell-based or functional assay.

human folate receptor alpha on cells (human), sequence (P15328 25-234 limits assumed): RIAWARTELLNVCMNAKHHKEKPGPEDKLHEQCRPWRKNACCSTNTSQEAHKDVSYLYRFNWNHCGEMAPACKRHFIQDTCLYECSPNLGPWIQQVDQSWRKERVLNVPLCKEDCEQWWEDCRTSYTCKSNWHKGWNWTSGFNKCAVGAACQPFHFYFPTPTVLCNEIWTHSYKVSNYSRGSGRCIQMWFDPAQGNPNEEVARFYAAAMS

With “ADC Molecule 21 (Mov19-sulfo-SPDB-DM4) (antibody)”, the fold shift of cell killing EC50 on Igrov1 cells on addition of naked antibody is 3 fold.
